Molecular target: T1, DEK (recombinant, baculovirus) (UniProt P35659 1-375)
T1 sequence: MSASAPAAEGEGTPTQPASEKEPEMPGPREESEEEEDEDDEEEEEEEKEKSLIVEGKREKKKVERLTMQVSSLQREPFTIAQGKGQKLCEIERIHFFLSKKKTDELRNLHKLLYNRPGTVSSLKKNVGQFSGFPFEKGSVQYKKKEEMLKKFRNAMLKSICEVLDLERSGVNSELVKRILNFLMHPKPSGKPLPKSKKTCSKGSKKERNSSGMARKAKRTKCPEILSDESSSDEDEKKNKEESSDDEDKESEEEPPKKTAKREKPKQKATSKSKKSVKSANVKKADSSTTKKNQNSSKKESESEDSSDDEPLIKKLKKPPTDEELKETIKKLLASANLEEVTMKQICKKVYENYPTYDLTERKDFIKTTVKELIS
Assay: pull-down, biotinylated aptamer on magnetic beads, immunoblot; two DEK concentrations, overnight 4 C; Selection and dot blot: 20 mM Tris pH 7.6, 100 mM NaCl, 5 mM MgCl2 (selection at room temperature; dot blot with 100 ug/ml salmon sperm DNA); pull-down: overnight at 4 C, PBS washes
Conditions: protein: recombinant; tags: His tag (SELEX resin); label: biotin (pull-down on magnetic beads)

B1: DTA-64 (ssDNA)
DNA: GGGGTTAAATATTCCCACATTGCCTGCGCCAGTACAAATAG
B1: binds.
